# Test results taken from patent US20240424101A1 (CORREGENE BIOTECHNOLOGY, published 2024).
# T1: HPV16 E7 peptide on HLA-A*02:01 (human)
# T1 peptide: YMLDLQPET
# B1: CRTE7A2 TCR (variable regions fused to murine constant regions) (TCR, V domains shown)
# V domain 1: RKEVEQDPGPFNVPEGATVAFNCTYSNSASQSFFWYRQDCRKEPKLLMSVYSSGNEDGRFTAQLNRASQYISLLIRDSKLSDSATYLCAVISAGTALIFGKGTTLSVSS
# V domain 2: DAGVTQSPTHLIKTRGQQVTLRCSPKSGHDTVSWYQQALGQGPQFIFQYYEEEERQRGNFPDRFSGHQFPNYSSELNVNALLLGDSALYLCASSLGWRGGLYTEAFFGQGTRLTVVE
# B2: CRTE7A2 (TCR, V domains shown)
# Valpha: B1 V domain 1
# Vbeta: DAGVTQSPTHLIKTRGQQVTLRCSPKSGHDTVSWYQQALGQGPQFIFQYYEEEERQRGNFPDRFSGHQFPNYSSELNVNALLLGDSALYLCASSLGWRGGLYTEAFFGQGTRLTVV
# How the values were obtained:
# [1] = molecular target: HPV16 E7 11-19 epitope (…) presented by HLA-A*02:01 (HPV16; human); test: cell-based or functional assay
# [2] = molecular target: T1, HPV16 E7 peptide on HLA-A*02:01; test: multimer staining
Binder,activation level of the NFAT-GFP reporter gene in Jurkat cells co-incubated with peptide-loaded T2 cells (EC50) [1],binding result [2]
B1,31 nM,
B2,,recognises
